Measurements as given in CN114592010A.

Molecular target: NK细胞自身的IL-15受体(IL15Rβγ) (UniProt P14784)
Assay: cell-based or functional assay

Sequence of UniProt P14784 (P14784 27-551 limits assumed, chain 1 of 2): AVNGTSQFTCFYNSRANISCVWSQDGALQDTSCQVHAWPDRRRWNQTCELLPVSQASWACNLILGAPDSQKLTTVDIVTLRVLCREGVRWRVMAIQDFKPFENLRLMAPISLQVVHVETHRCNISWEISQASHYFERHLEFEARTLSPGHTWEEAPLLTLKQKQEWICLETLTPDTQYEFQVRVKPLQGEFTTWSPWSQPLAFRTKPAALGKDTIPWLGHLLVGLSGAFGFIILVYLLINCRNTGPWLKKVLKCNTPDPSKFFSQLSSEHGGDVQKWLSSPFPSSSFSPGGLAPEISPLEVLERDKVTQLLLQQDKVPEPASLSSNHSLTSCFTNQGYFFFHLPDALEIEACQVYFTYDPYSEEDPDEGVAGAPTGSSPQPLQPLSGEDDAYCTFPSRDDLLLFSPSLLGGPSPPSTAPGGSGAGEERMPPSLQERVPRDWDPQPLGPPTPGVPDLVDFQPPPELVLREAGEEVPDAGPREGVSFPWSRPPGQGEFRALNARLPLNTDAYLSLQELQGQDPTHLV
Sequence of UniProt P14784 (P31785 23-369 limits assumed, chain 2 of 2, further chain): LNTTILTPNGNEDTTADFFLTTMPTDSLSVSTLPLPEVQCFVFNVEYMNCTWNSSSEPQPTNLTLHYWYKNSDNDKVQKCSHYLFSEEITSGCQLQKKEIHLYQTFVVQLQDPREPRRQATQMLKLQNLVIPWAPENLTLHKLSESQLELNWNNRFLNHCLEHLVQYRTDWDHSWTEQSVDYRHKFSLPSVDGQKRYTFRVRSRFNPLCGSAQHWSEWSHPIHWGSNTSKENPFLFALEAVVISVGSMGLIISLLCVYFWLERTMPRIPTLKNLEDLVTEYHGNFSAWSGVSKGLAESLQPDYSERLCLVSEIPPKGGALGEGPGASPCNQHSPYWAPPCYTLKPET

Substance: 膜结合型IL-15 (IL-15-CD8 hinge-CD8 TM融合蛋白) (ligand)
- 增殖效果 (CCK8), NKMB cells = 实施例3 NK-CAR(NK-CAR)-MbIL-15, 1d (relative to 0d = 1): 1.66
- 增殖效果 (CCK8), NKMB cells = 实施例3 NK-CAR(NK-CAR)-MbIL-15, 2d (relative to 0d = 1): 2.37
- 增殖效果 (CCK8), NKMB cells = 实施例3 NK-CAR(NK-CAR)-MbIL-15, 3d (relative to 0d = 1): 2.83
- 增殖效果 (CCK8), NKMB cells = 实施例3 NK-CAR(NK-CAR)-MbIL-15, 4d (relative to 0d = 1): 4.12
- 增殖效果 (CCK8), TMB cells = 实施例4 NK-CAR(T-CAR)-MbIL-15, 1d (relative to 0d = 1): 1.67
- 增殖效果 (CCK8), TMB cells = 实施例4 NK-CAR(T-CAR)-MbIL-15, 2d (relative to 0d = 1): 2.7
- 增殖效果 (CCK8), TMB cells = 实施例4 NK-CAR(T-CAR)-MbIL-15, 3d (relative to 0d = 1): 3.63
- 增殖效果 (CCK8), TMB cells = 实施例4 NK-CAR(T-CAR)-MbIL-15, 4d (relative to 0d = 1): 7.77
